Where two headings read alike, the source gives them in different places.
Assays:
human Claudin18.2 [1] = target: human Claudin18.2 (human); experiment: cell-based or functional assay
human Claudin18.2 [2] = target: human Claudin18.2 (human); experiment: cell-based or functional assay; remark: listed apart in the source
human Claudin18.2 [3] = target: T1, human Claudin18.2 (human); experiment: FACS, Claudin18.2-HEK293 cells
T1 construct: also called CLDN18.2
Description: (§1) The binding of chimeric antibodies to Claudin18.2 expressed on HEK293 cells was determine by FACS analysis. Briefly, HEK293 cells expressing human Claudin18.2 as prepared in the foregoing Example were harvested and incubated with anti-Claudin18.2 mAbs at 4° C. for 40 min, followed by fluorophore (iFluor 647)-labeled goat […] IgG (H+L) secondary antibodies at 4° C. for 0.5 hour. The samples were then analyzed by flow cytometry.
After initial screening of cell binding with transfected supernatants, the binding pattern of chimeric and up to 3 humanized antibodies on Claudin18.2 expressed on HEK293 cells were plotted with antibody in 3× serial dilutions, starting concentration of 45 μg/ml, following the protocol described in Example 3.

human Claudin18.2 [4] = target: T1, human Claudin18.2; experiment: FACS, Claudin18.2-HEK293 cells; remark: listed apart in the source
Description: as §1

human Claudin18.2 [5] = target: T1, human Claudin18.2; experiment: FACS, Claudin18.2-HEK293 cells; remark: listed apart in the source
Description: as §1

Binder	CDC % Relative activity (human Claudin18.2 [1])	CDC EC50 (human Claudin18.2 [1])	ADCC % Relative activity (human Claudin18.2 [2])	ADCC EC50 (human Claudin18.2 [2])	EC50 (human Claudin18.2 [3])	Span (human Claudin18.2 [3])	EC50 (human Claudin18.2 [4])	EC50 (human Claudin18.2 [5])
chimeric 246B5F2 (antibody, human IgG1, kappa, V domains shown, chimeric, human IgG1/kappa constant regions; also called 246B5F2-Chimeric) VH: EVMLVESGGGLMKPGGSLKLSCAASEFTFSNYAMSWVRQTPEKRLEWVATISSGRSSTYYPDSVKGRFTISRDNAKNTLYLQMSSLRSEDTAMYYCAGLGRGNAMEYWGQGTSVTVSS VL: DIVMTQSPSSLTVTAGEKVTLSCKSSQSLLNSGNQKNYLTWYQQKPGQPPKLLIYWASTRESGVPDRFTGSGSGTDFILTINSVQAEDLAVYYCQNAYSYPFTFGSGTKLEIKR	985%	0.274 µg/mL	157%	0.023 µg/mL	0.192 µg/mL	12400	1240 pM	
chimeric 273C10E5 (antibody, human IgG1, kappa, V domains shown, chimeric, human IgG1/kappa constant regions) VH: QVQLQQSGAELVKPGASVKLSCKASGYTFTSFGINWLRQRPEQGLEWIGWIFPGDGNSKYNENFKGKATLTTDKSSSTAYMQVTRLTSEDSAVYFCARFYYGNSFANWGQGTLVTVSA VL: DIVMTQSPSSLTVTAGEKVTMSCKSSQSLLNSGNQKNYLTWYQQKPGQPPKLLIYWAATRESGVPDRFAGSGSGTDFTLTISSVQAEDLAVYYCQNDYFYPFTFGAGTKLELKR	854%	0.269 µg/mL	92.1%	0.0275 µg/mL			1010 pM	
chimeric 370E2B12C3 (antibody, human IgG1, kappa, V domains shown, chimeric, human IgG1/kappa constant regions; also called 370E2B12C3-chimeric) VH: QVQLKESGPGLVAPSQSLSITCTVSGFSLTTYGVHWVRQPPGKGLEWLGVIWAGGSTNYNSALMSRVSINKDNSKSQVFIKMNSLQADDTALYYCARAAYYGNGLDYWGQGTTLTVSS VL: DIVMTQSPSSLTVTAGEKVTMSCKSSQTLLNSGNQKNYLTWYQQKPGQPPKLLIYWASTGESGVPDRFTGSGSGTDFTLTISSVQAEDLAVYFCQNAYFYPFTFGGGTKLEIKR	1200%	0.192 µg/mL	75.7%	0.0335 µg/mL	0.772 µg/mL	4570	792 pM	
chimeric 257B1G9 (antibody, human IgG1, kappa, V domains shown, chimeric, human IgG1/kappa constant regions) VH: QAYLQQSGAELVRSGASVKMSCKASGYTFTSHNMHWVKQTPGQGLEWIGYIYPGNGGTNYNQKFKGKATLTADTSSSTAYMQISSLTSEDSAVYFCTRDYYGNSFAYWGQGTLVTVSA VL: DIVMTQSPSSLTERAGERVSMSCKSSQSLFNSGNQKNYLTWYQQKPGQPPKLLIYWASTRESGVPDRFTGSGSGTDFTLTISSVQAEDLAVYYCQNDYRYPFTFGAGTKLELKR	642%	0.358 µg/mL	68.2%	0.0454 µg/mL			1160 pM	
chimeric 232C5E3 (antibody, human IgG1, kappa, V domains shown, chimeric, human IgG1/kappa constant regions; also called 232C5E3-Chimeric) VH: QAYLQQSGAELVRSGASVKMSCKASGYTFTSHNIHWIKQTPGKGLEWIGYIYPGNGGTNYNQKFKAKATLTADTSSSTAYMQISSLTSEDSAVYFCARDYYGNSFAYWGQGTLVTVSA VL: DIMMTQSPSSLTETAGEKVSMSCKSSQSLLNSGNQKNYLTWYQQKPGQPPKLLIYWASTRESGVPDRFSGSGSGTDFTLTISSVQAEDLAVYYCQNGYRFPFTFGAGTKLELKR	2130%	0.0994 µg/mL	452%	0.00782 µg/mL	0.317 µg/mL	69700	1050 pM	
chimeric 252E7C9 (antibody, human IgG1, kappa, V domains shown, chimeric, human IgG1/kappa constant regions) VH: QTYLQQSGAELVRSGASVKMSCRTSGYSFTSHNMHWVKQTPGQGLEWIGYIYPGNGGSYYNQKFKGKAILTADTSSSTAYMQISSLTSEDSAVYFCTRDYYGNSFVYWGQGTLVTVSA VL: DVVMTQSPSSLTEKTGEKVSMSCKSSQSLLNSGNQKNYLTWYQQKPGQPPKLLIYWASTRESGVPDRFTGSGSGTDFTLTISSLQTEDLAIYYCQNNFRYPFTFGAGTKLELKR	991%	0.272 µg/mL	98.7%	0.0311 µg/mL			331 pM	
chimeric 260G9E8 (antibody, human IgG1, kappa, V domains shown, chimeric, human IgG1/kappa constant regions) VH: QADLQQSGAELVRSGASVKMSCKASGYTFASHNMHWVKQTPGQGLEWIGYIYPGNGGTKYNQKFTGKATLTADTSSSTAYMQITSLTSEDSAVYFCARDYYGNSFAYWGQGTLVTVSA VL: DIVMTQSPSSLTEKAGEKVSMRCKSSQSLLNSGNQKNYLTWYQQKPGQPPKLLIYWASTRESGVPDRFTGSGSGTDFTLTISSVQADDLAVYYCQNDYMFPFTFGAGTKLELKR	684%	0.336 µg/mL	104%	0.024 µg/mL			1050 pM	
chimeric 257G7B9 (antibody, human IgG1, kappa, V domains shown, chimeric, human IgG1/kappa constant regions) VH: QAYLQQSGAELVRSGASVKMSCKASGYTFTSHNLHWVKQTPGQGLEWIGYIYPGNGNTNYNQKFKGKATLTADTSSSTAYMQISSLTSEDSAVYFCTRDYYGNSFAYWGQGTLVTVSA VL: DIVMTQSPSSLTEKAGERVSMSCKSSQSLFNSGNQKNYLTWYQQKPGQPPKLLIYWASTRESGVPDRFTGSGSGTDFTLTISSVQAEDLAVYYCQNNYWFPFTFGAGTKLELKR	760%	0.302 µg/mL	55.8%	0.0556 µg/mL			742 pM	
chimeric 207F8G5 (antibody, human IgG1, kappa, V domains shown, chimeric, human IgG1/kappa constant regions; also called 207F8G5-Chimeric) VH: QAYLQQSGAELVRSGASVKMSCKASGFTFTSYNIHWVKQTPGQGLEWIGYISPGNGGSNYNLKFKDKATLTSATSSSTAYMQISSLTSEDSAVYFCATGRGFAYWGQGTLVTVSA VL: DIVMTQSPSSLTVTPGEKVTMSCKSSQSLFNSGNQKNYLIWYQQKPGQPPKLLIYRASTRDSGVPDRFTGSGSGTDFTLTISNVQAEDLAIYYCQNDYSYPLTFGAGTKLELKR	1300%	0.207 µg/mL	114%	0.0214 µg/mL	0.17 µg/mL	11800	554 pM	
chimeric 407D8G1 (antibody, human IgG1, kappa, V domains shown, chimeric, human IgG1/kappa constant regions) VH: DVQLVESGGGLVQPGGSRKLSCAASGFTFSGFGMHWIRQTPEKGLEWVAYISSGSRPIYYADTVQGRFTISRDNPKNTLFLQMTSLRSEDTAMYFCARFYYGNSFDHWGQGTLVTVSS VL: DIVMTQSPSFLTVTAGEKVTMSCKSSQSLLNSGNQKNYLTWYQQKPGQPPKLLIYWASTRESGVPDRFTGSGSGTDFTLTISSVQAEDLALYYCQNAYSFPLTFGAGTKLELKR								533 pM
chimeric 418G6A5 (antibody, human IgG1, kappa, V domains shown, chimeric, human IgG1/kappa constant regions) VH: DVQLVESGGGLVQPGGSRKLSCVASGFTFSSFGMHWVRQAPEKGLEWVAYISSGSSPMYYADTVKGRFTISRDNPKNTLFLQMTSLRSEDTAMYFCARIYYGNSFAYWGQGTLVTVSA VL: DIVMTQSPSSLTVTAGEKVTMSCKSSQSLLNSGNQKNYLTWYQQKPGQPPKLLIYWASTRESGVPDRFTGSGSGTDFTLTISSVQAEDLAVYYCQNAYSYPLTFGAGTKLELKR								595 pM
chimeric 253E4F7 (antibody, human IgG1, kappa, V domains shown, chimeric, human IgG1/kappa constant regions) VH: EIQLQQSGPELMKPGASVKMSCKASGYSFTSYYIHWVKQSHGKSLEWIGYIDPFNGGTRYNQKFEGKATLTVDKSSTTAYMHLSSLTSEDSTVYYCASLRFLAYWGQGTLVTVSA VL: DIVMTQSPSSLTVTAGEKVTMTCKSSQSLLNSGNQKNYLTWYQQKPGQPPKVLISRASTRQSGVPDRFTGSGSGTDFTLTISSVQAEDLAVYYCQNDYSYPLTFGAGTKLELKR	1320%	0.205 µg/mL	138%	0.0225 µg/mL			561 pM	
chimeric 185F2G12 (antibody, human IgG1, kappa, V domains shown, chimeric, human IgG1/kappa constant regions) VH: QAYLQQSGAELVRSGASVKMSCKASGYTFTSYNMHWVRQTPGQGLEWIGYIYPGNGGTNYSQKFKGKASLTADTSSTTAYMQISSLTSEDSAVYFCATGRGFAYWGQGTLVTVSA VL: DIVMTQSPSSLTVTAGEKVTLSCKSSQSLFNTGNQKNYLTWYQQKPGQPPKLLIFRASTRESGVPDRFTGSGFGTDFTLTISSVQAEDLAVYYCQNDFSYPLTFGAGTKLELKR	2100%	0.101 µg/mL	399%	0.00886 µg/mL			634 pM	
chimeric 265E6G2 (antibody, human IgG1, kappa, V domains shown, chimeric, human IgG1/kappa constant regions) VH: QAYLQQSGAELVRSGASVKMSCKASGYTFTSYNMHWVKQTPGQGLEWIGYIYPGNGGTNYNQKFKGKATLTADTSSSTAYMQISSLTSEDSAVYFCARDYYGNSFAYWGQGTLVTVSA VL: DLVMTQSPSSLTVTAGEKVTMSCKSSQSLLNSGNQKNYLTWYQQKPGQPPKLLIYWASTRESGVPDRFTGSGSGTDFTLTISNIQAEDLAVYYCQNDYSYPLPFGAGTKLELRR	487%	0.472 µg/mL	77.8%	0.0321 µg/mL			1050 pM	
chimeric 237D2A4 (antibody, human IgG1, kappa, V domains shown, chimeric, human IgG1/kappa constant regions; also called 237D2A4-Chimeric) VH: QVQLKESGPGLVAPSQSLSITCTVSGFSLTSYGVSWVRQPPGKGLEWLGVIWGDGSTNYHSTLISRLRISKDKSKSQVFLKLNSLQTDDTATYYCAKAGRGNALDYWGQGTSVTVSS VL: DIVMTQSPSSLTVTAGEKVTMSCKSSQSLLNSGNQKNYLTWYQQKPGQPPKLLIYWASTRESGVPDRFTGSGSGTDFTLTISSVQAEDLAVYYCQNDYSFPLTFGAGTKLELKR	1170%	0.231 µg/mL	169%	0.0214 µg/mL	0.0923 µg/mL	14800	596 pM	
chimeric 262C7C10 (antibody, human IgG1, kappa, V domains shown, chimeric, human IgG1/kappa constant regions) VH: QAYLQQSGAELVRSGASVKMSCKASGYTFTNYNIHWVKQTPGQGLEWIGYIYPGNGGNYYNQKFKGKATLTADTSSITAYMQISSLTSEDSAVYFCARDYYGNSFAYWGQGTLVTVSA VL: DIVMTQSPSSLTVTAGEKVTMNCKSSQSLLNSGNQKNYLTWYQQKPGQPPKLLIYWASTRESGVPDRFTGSGSGTDFTLTISSVQAEDLAIYYCQNDYYYPLTFGAGTKLELKR	666%	0.345 µg/mL	105%	0.0237 µg/mL			1170 pM	

— patent US20220073643A1 (NANJING GENSCRIPT BIOTECH, published 2022)
